For three substances, stoichiometry N results are on record in paper PMC11592359.

For experiment [1], the target named is mouse iodothyronine deiodinase 2, residues 49-262 (Mus musculus) (UniProt Q9Z1Y9). Put plainly: not stated; size analysis of the recombinantly produced construct (Supplementary Figure S3C).
Experiment [2] addresses mouse iodothyronine deiodinase 2 catalytic domain, residues 71-262 (Sec130Cys) (Mus musculus) (UniProt Q9Z1Y9). Put plainly: SEC-MALS; SEC with multi angle light scattering of the two species of Dio2-71-262 (Supplementary Figure S3A). For orientation: Size exclusion chromatography separates by hydrodynamic size, large species first.
Experiment [3] shares this target. Kind of experiment: native gel or EMSA; Blue Native PAGE, 5% stacking and 12.5% resolving gel, 4 °C; samples from the monomer and the dimer SEC peaks; catalase, BSA and chicken egg albumin as size markers. For orientation: A gel shift assay detects complexes by their altered migration in electrophoresis.
Experiment [4] has the same target. Kind of experiment: SEC; size exclusion chromatography of the purified recombinant protein (final purification step); 20 mM Tris/HCl pH 7.5/7.8, 200 mM NaCl, 1 mM TCEP; compared with molecular weight standards.
For experiment [5], the target named is LZ-mDio3^cat: leucine zipper of A. thaliana Hy5 (residues 112-150) fused N-terminally to mouse Dio3 78-304 Sec170Cys (A. thaliana | Mus musculus). Put plainly: native gel or EMSA; Blue Native PAGE, 5% stacking and 12.5% resolving gel, 4 °C; samples from the monomer and the dimer SEC peaks; catalase, BSA and chicken egg albumin as size markers.
Experiment [6] has the same target. Put plainly: SEC; size exclusion chromatography of the purified recombinant protein (final purification step); 20 mM Tris/HCl pH 7.5/7.8, 200 mM NaCl, 1 mM TCEP; compared with molecular weight standards.

A word on the stoichiometry N: it is the number of molecules, sites or subunits per partner or assembly. Take “mouse iodothyronine deiodinase 2, residues 49-262 (from UniProt Q9Z1Y9 49-262) (domain or fragment)”: the stoichiometry N in experiment [1] is 2.

With “mouse iodothyronine deiodinase 2 catalytic domain, residues 71-262 (Sec130Cys) (from UniProt Q9Z1Y9 71-262) (domain or fragment)”, the stoichiometry N in experiment [2], in experiment [3] and in experiment [4] was 2 in each case.

Regarding “LZ-mDio3^cat: leucine zipper of A. thaliana Hy5 (residues 112-150) fused N-terminally to mouse Dio3 78-304 Sec170Cys (from UniProt O24646 112-150; Q91ZI8 78-304)”, the stoichiometry N in experiment [5] and in experiment [6] was 2 throughout.
